The source of these data is US20240016931A1 (JIANGSU HENGRUI PHARMACEUTICALS, published 2024).

In assay [1] the target is T1, native TSLP (human, UniProt Q969D9 29-159). The assay can be described thus: cell-based or functional assay.
In assay [2] the target is T2, Fc-tagged human TSLP antigen (huTSLP-Fc) (human, biotin-labeled in the blocking assays).
T2 construct: whole entry named; also called recombinant human TSLP-Fc
The assay can be described thus: competition FACS: biotin-TSLP-Fc binding to CHOK1-TSLPR/IL-7R cells.

The target in assay [3] is T3, His-tagged cynomolgus monkey TSLP antigen (cynoTSLP-His) (cynomolgus monkey).
T3 construct: whole entry named
T3 chain: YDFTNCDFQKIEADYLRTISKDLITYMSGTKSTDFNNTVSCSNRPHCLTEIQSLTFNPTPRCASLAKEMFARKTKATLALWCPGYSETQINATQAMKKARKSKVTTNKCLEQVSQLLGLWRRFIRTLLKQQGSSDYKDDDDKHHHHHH
The assay can be described thus: Biacore T200, antibody captured on Protein A chip, antigen in flow, 1:1 Langmuir.

For assay [4], the target named is T4, His-tagged human TSLP antigen (huTSLP-his) (human).
T4 construct: Secreted from HEK293E and purified on nickel; whole entry named; also called Human TSLP-his
The assay is described as above.

For assay [5], the target named is T2, Fc-tagged human TSLP antigen (huTSLP-Fc). Kind of assay: competition ELISA: biotin-huTSLP-Fc binding to coated human-TSLPR-Fc-ECD. (In general: In an ELISA, binding on a coated surface is turned into a signal by an enzyme label.)
In assay [6] the target is T4, His-tagged human TSLP antigen …. Kind of assay: Biacore (SPR). On the technique in general: Surface plasmon resonance follows binding to a sensor surface in real time, without labels.
Assay [7] has as its target T1, native TSLP. The assay can be described thus: cell-based or functional assay. This is another data set of the same source.
Assay [8] has as its target T2, Fc-tagged human TSLP antigen (huTSLP-Fc). The assay can be described thus: cell-based or functional assay.
The target in assay [9] is T4, His-tagged human TSLP antigen …. Kind of assay: ELISA on human TSLP.
For assay [10] the target is unchanged. Kind of assay: ELISA, coated huTSLP-his.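 Also: binding of antibodies to plate-bound TSLP read as absorbance at 450 nm after TMB colour development, EC50 derived from binding curves.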
Assay [11] deals with T2, Fc-tagged human TSLP antigen (huTSLP-Fc). The assay can be described thus: competition ELISA: plate coated with human-TSLPR-Fc-ECD, biotin-labeled huTSLP-Fc premixed with the antibody dilution series, streptavidin-peroxidase detection, OD450; blocked ligand-receptor pair is TSLP and TSLPR.

B1: hu179-33 (antibody, human IgG1, kappa, V domains shown)
VH: EVQLVQSGAEVKKPGSSVKVSCKASGYTFSNYLIEWVRQAPGQGLEWIGVIDPGVGDTNYNENFKGRATLTADKSTSTAYIELSSLRSEDTAVYYCAREDNTGTAFDYWGQGTTVTVSS
VL: SIVMTQTPLSLSVTPGQPASISCKASQSVSSDVTWYLQKPGQSPQLLIYYVSEHYTGVPDRFSGSGYGTDFTLKISRVEAEDVGVYYCQQHHRFPLTFGQGTKLEIKR
notes: IgG1-YTE, kappa; also called hu179VH3-N55V + hu179VL8-N53E
As for B1, in the assay with native TSLP [1], the “IC50 (nM), inhibition of native TSLP-induced proliferation of BaF3-TLSPR/IL-7R cells” value amounted to 0.0228 nM. Moreover, the values for the half-inhibitory concentration (IC50) in [2] and in assay [5] were 0.187 nM and 0.504 nM, respectively. The Kd (commonly a measure of binding affinity in units of concentration) is 0.0304 nM in [3], 0.000903 nM in assay [4] and 0.000903 nM in assay [6]. In the assay with native TSLP [7], the “activity in inhibiting native TSLP-stimulated proliferation of BaF3, relative to AMG157” value was 100 times. Besides, the “IC50 (nM), inhibition of TSLP-induced proliferation of BaF3 cells overexpressing TSLPR/IL-7R” value in assay [8] was found to be 0.409 nM.

B2: hu3-11 (antibody, human IgG1, kappa, V domains shown)
VH: EVQLVQSGAEVKKPGASVKVSCKASGYTFTDDYMNWVRQAPGQRLEWMGIISPYNGGTSYNQKFKGRVTLTVDKSASTAYMELSSLRSEDTAVYYCAREDYDYDGYAMDYWGQGTTVTVSS
VL: EIVLTQSPATLSLSPGERATLSCRASSSVSYMHWYQQKPGQAPRPWIYATSNLASGVPARFSGSGSGTSYTLTISRLEPEDFAVYYCQQWSSDRTFGGGTKVEIKR
notes: IgG1-YTE, kappa; also called hu3VH2-H110Y + hu3VL4-N93D
With B2, the binding result in assay [9] is recorded as “binds”.

B3: hu3-13 (antibody, human IgG1, kappa, V domains shown)
VH: EVQLVQSGAEVKKPGASVKVSCKASGYTFTDDYMNWVRQAPGQRLEWMGIISPYNGGTSYNQKFKGRVTLTVDKSASTAYMELSSLRSEDTAVYYCAREDYDYDGYAMDYWGQGTTVTVSS
VL: EIVLTQSPATLSLSPGERATLSCRASSSVSYMHWYQQKPGQAPRPWIYATSNLASGVPARFSGSGSGTSYTLTISRLEPEDFAVYYCQQSDSGREFGGGTKVEIKR
notes: IgG1-YTE, kappa; also called hu3VH2-H110Y + hu3VL6
As for B3, in the assay with native TSLP [1], the “IC50 (nM), inhibition of native TSLP-induced proliferation of BaF3-TLSPR/IL-7R cells” value is 0.289 nM. The IC50 (in general, the concentration at which inhibition is half-maximal) is 0.133 nM in assay [2] and 0.497 nM in assay [5]. Further, the Kd came to 0.34 nM in [3] and 0.001 nM in assay [4]. Further, in assay [10], the EC50 (in general, the concentration that produces a half-maximal response) amounted to 0.148 nM. Moreover, the “IC50 (nM), inhibition of TSLP-induced proliferation of BaF3 cells overexpressing TSLPR/IL-7R” value in [8] amounted to 0.444 nM.

B4: hu119-30 (antibody, human IgG1, kappa, V domains shown)
VH: EAQLVQSGAEVKKPGSSVKVSCKASGFTFSTYNMHWVRQAPGQGLEWIGAIYPGNGETSYNQKFKDRATLTVDKSTRTAYMELSSLRSEDTAVYYCAREDDYGEGYFDVWGQGTTVTVSS
VL: DIVLTQSPATLSLSPGERATLSCRASESVDSSGLSFMHWYQQKPGQPPRLLLYRASNLGSGIPARFSGSGSGTDFTLTISSLEPEDFAVYYCQQINTDPLTFGQGTKLEIKR
notes: IgG1-YTE, kappa; also called hu119VH8 + hu119VL6-N31S
With B4, the “IC50 (nM), inhibition of native TSLP-induced proliferation of BaF3-TLSPR/IL-7R cells” value with native TSLP [1] is 1.53 nM. For the same molecule, the IC50 turned out to be 0.137 nM in assay [2] and 0.519 nM in [5]. In addition, the Kd in assay [3] was 1.95 nM; in [4], 0.005 nM. Also, in [8], the “IC50 (nM), inhibition of TSLP-induced proliferation of BaF3 cells overexpressing TSLPR/IL-7R” value was found to be 0.43 nM.

B5: AMG157 (tezepelumab, anti-TSLP antibody) (antibody, human IgG2, lambda, V domains shown)
VH: QMQLVESGGGVVQPGRSLRLSCAASGFTFRTYGMHWVRQAPGKGLEWVAVIWYDGSNKHYADSVKGRFTITRDNSKNTLNLQMNSLRAEDTAVYYCARAPQWELVHEAFDIWGQGTMVTVSS
VL: SYVLTQPPSVSVAPGQTARITCGGNNLGSKSVHWYQQKPGQAPVLVVYDDSDRPSWIPERFSGSNSGNTATLTISRGEAGDEADYYCQVWDSSSDHVVFGGGTKLTVLG
notes: positive control
Turning to B5, the IC50 in assay [2] was 0.207 nM. Also, the Kd in [3] came to 0.00922 nM; in assay [4], 0.00812 nM; in [6] it was 0.00812 nM. The “IC50 (read off the curve)” value in [11] is about 0.5 nM. Besides, in [10], the EC50 came to 0.722 nM. Also, the “IC50 (nM), inhibition of TSLP-induced proliferation of BaF3 cells overexpressing TSLPR/IL-7R” value in assay [8] is 0.573 nM.
